Square brackets hold non-standard residues; d marks the D form. Ends that are not written are not given here. * marks the point of attachment. Desaminotyrosyl = O=C(CCc1ccc(O)cc1)*; NMeY = CN[C@@H](Cc1ccc(O)cc1)C(=O)O; hArg = N=C(N)NCCCC[C@H](N)C(=O)O; Agmatine = N=C(N)NCCCCN*; NMeA = CN[C@@H](C)C(=O)O; Nle = CCCC[C@H](N)C(=O)O; Orn = NCCC[C@H](N)C(=O)O; dAbu = CC[C@@H](N)C(=O)O; Abu = CC[C@H](N)C(=O)O; GABA = NCCCC(=O)O
T1: GHRH receptor of human pituitary membrane homogenates (human, UniProt Q02643 23-423)
T1 construct: whole, on cells; Native receptor in pituitary membrane homogenates, not intact cells; also called hGH-RH receptor
T1 sequence (looked up): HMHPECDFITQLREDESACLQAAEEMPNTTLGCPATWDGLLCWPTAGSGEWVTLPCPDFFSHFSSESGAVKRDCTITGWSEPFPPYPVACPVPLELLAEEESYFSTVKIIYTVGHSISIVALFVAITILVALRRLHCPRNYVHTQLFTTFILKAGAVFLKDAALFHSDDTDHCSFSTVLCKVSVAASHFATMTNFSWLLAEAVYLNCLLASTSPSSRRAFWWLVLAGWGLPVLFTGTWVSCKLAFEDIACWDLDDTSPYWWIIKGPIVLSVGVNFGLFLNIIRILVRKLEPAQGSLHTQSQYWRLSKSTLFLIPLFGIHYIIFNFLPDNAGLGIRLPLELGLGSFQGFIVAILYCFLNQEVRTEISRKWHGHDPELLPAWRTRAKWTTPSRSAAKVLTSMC

B1: [Dat^1, D-Ala^2, Orn^12, Abu^15, Orn^21, Nle^27, Asp^28, Har^30]hGH-RH(1-30)NH2 (peptide)
chain: [Desaminotyrosyl][dA]DAIFTNSYR[Orn]VL[Abu]QLSAR[Orn]LLQDI[Nle]DR[hArg]-NH2
SMILES: CCCC[C@H](NC(=O)[C@@H](NC(=O)[C@H](CC(=O)O)NC(=O)[C@H](CCC(N)=O)NC(=O)[C@H](CC(C)C)NC(=O)[C@H](CC(C)C)NC(=O)[C@H](CCCN)NC(=O)[C@H](CCCNC(=N)N)NC(=O)[C@H](C)NC(=O)[C@H](CO)NC(=O)[C@H](CC(C)C)NC(=O)[C@H](CCC(N)=O)NC(=O)[C@H](CC)NC(=O)[C@H](CC(C)C)NC(=O)[C@@H](NC(=O)[C@H](CCCN)NC(=O)[C@H](CCCNC(=N)N)NC(=O)[C@H](Cc1ccc(O)cc1)NC(=O)[C@H](CO)NC(=O)[C@H](CC(N)=O)NC(=O)[C@@H](NC(=O)[C@H](Cc1ccccc1)NC(=O)[C@@H](NC(=O)[C@H](C)NC(=O)[C@H](CC(=O)O)NC(=O)[C@@H](C)NC(=O)CCc1ccc(O)cc1)[C@@H](C)CC)[C@@H](C)O)C(C)C)[C@@H](C)CC)C(=O)N[C@@H](CC(=O)O)C(=O)N[C@@H](CCCNC(=N)N)C(=O)N[C@@H](CCCCNC(=N)N)C(N)=O
B2: [N-Me-Tyr^1, Abu^2, Orn^12, Abu^15, Orn^21, Nle^27, Gab^30]hGH-RH(1-30)NH2 (peptide)
peptide: [NMeY][Abu]DAIFTNSYR[Orn]VL[Abu]QLSAR[Orn]LLQDI[Nle]SR[GABA]-NH2
modifications: N-terminus assumed
SMILES: CCCC[C@H](NC(=O)[C@@H](NC(=O)[C@H](CC(=O)O)NC(=O)[C@H](CCC(N)=O)NC(=O)[C@H](CC(C)C)NC(=O)[C@H](CC(C)C)NC(=O)[C@H](CCCN)NC(=O)[C@H](CCCNC(=N)N)NC(=O)[C@H](C)NC(=O)[C@H](CO)NC(=O)[C@H](CC(C)C)NC(=O)[C@H](CCC(N)=O)NC(=O)[C@H](CC)NC(=O)[C@H](CC(C)C)NC(=O)[C@@H](NC(=O)[C@H](CCCN)NC(=O)[C@H](CCCNC(=N)N)NC(=O)[C@H](Cc1ccc(O)cc1)NC(=O)[C@H](CO)NC(=O)[C@H](CC(N)=O)NC(=O)[C@@H](NC(=O)[C@H](Cc1ccccc1)NC(=O)[C@@H](NC(=O)[C@H](C)NC(=O)[C@H](CC(=O)O)NC(=O)[C@H](CC)NC(=O)[C@H](Cc1ccc(O)cc1)NC)[C@@H](C)CC)[C@@H](C)O)C(C)C)[C@@H](C)CC)C(=O)N[C@@H](CO)C(=O)N[C@@H](CCCNC(=N)N)C(=O)NCCCC(N)=O
notes: also called Peptide 25503
B3: [Dat^1, D-Ala^2, N-Me-Ala^8, Orn^12, Abu^15, Orn^21, Nle^27, Asp^28, Agm^29]hGH-RH(1-29) (peptide)
chain: [Desaminotyrosyl][dA]DAIFT[NMeA]SYR[Orn]VL[Abu]QLSAR[Orn]LLQDI[Nle]D[Agmatine]
SMILES: CCCC[C@H](NC(=O)[C@@H](NC(=O)[C@H](CC(=O)O)NC(=O)[C@H](CCC(N)=O)NC(=O)[C@H](CC(C)C)NC(=O)[C@H](CC(C)C)NC(=O)[C@H](CCCN)NC(=O)[C@H](CCCNC(=N)N)NC(=O)[C@H](C)NC(=O)[C@H](CO)NC(=O)[C@H](CC(C)C)NC(=O)[C@H](CCC(N)=O)NC(=O)[C@H](CC)NC(=O)[C@H](CC(C)C)NC(=O)[C@@H](NC(=O)[C@H](CCCN)NC(=O)[C@H](CCCNC(=N)N)NC(=O)[C@H](Cc1ccc(O)cc1)NC(=O)[C@H](CO)NC(=O)[C@H](C)N(C)C(=O)[C@@H](NC(=O)[C@H](Cc1ccccc1)NC(=O)[C@@H](NC(=O)[C@H](C)NC(=O)[C@H](CC(=O)O)NC(=O)[C@@H](C)NC(=O)CCc1ccc(O)cc1)[C@@H](C)CC)[C@@H](C)O)C(C)C)[C@@H](C)CC)C(=O)N[C@@H](CC(=O)O)C(=O)NCCCCNC(=N)N
B4: [Dat^1, D-Abu^2, Orn^12, Abu^15, Orn^21, Nle^27, Gab^30]hGH-RH(1-30)NH2 (peptide)
chain: [Desaminotyrosyl][dAbu]DAIFTNSYR[Orn]VL[Abu]QLSAR[Orn]LLQDI[Nle]SR[GABA]-NH2
SMILES: CCCC[C@H](NC(=O)[C@@H](NC(=O)[C@H](CC(=O)O)NC(=O)[C@H](CCC(N)=O)NC(=O)[C@H](CC(C)C)NC(=O)[C@H](CC(C)C)NC(=O)[C@H](CCCN)NC(=O)[C@H](CCCNC(=N)N)NC(=O)[C@H](C)NC(=O)[C@H](CO)NC(=O)[C@H](CC(C)C)NC(=O)[C@H](CCC(N)=O)NC(=O)[C@H](CC)NC(=O)[C@H](CC(C)C)NC(=O)[C@@H](NC(=O)[C@H](CCCN)NC(=O)[C@H](CCCNC(=N)N)NC(=O)[C@H](Cc1ccc(O)cc1)NC(=O)[C@H](CO)NC(=O)[C@H](CC(N)=O)NC(=O)[C@@H](NC(=O)[C@H](Cc1ccccc1)NC(=O)[C@@H](NC(=O)[C@H](C)NC(=O)[C@H](CC(=O)O)NC(=O)[C@@H](CC)NC(=O)CCc1ccc(O)cc1)[C@@H](C)CC)[C@@H](C)O)C(C)C)[C@@H](C)CC)C(=O)N[C@@H](CO)C(=O)N[C@@H](CCCNC(=N)N)C(=O)NCCCC(N)=O

Each molecule was assayed against T1, GHRH receptor of human pituitary … (assay: radioligand competition, [His1,125I-Tyr10,Nle27]hGHRH(1-32)NH2 (0.2 nM) as competitor, human pituitary membrane homogenates).
Text: Normal human pituitaries were purchased from the National Hormone and Peptide Program (A. F. Parlow, Los Angeles, County Harbor—UCLA Medical Center, Torrance, Calif.).
In the case of B1, the IC50 is reported as 0.14 nM, the “Relative affinity (Binding potency) vs GHRH” value is reported as 42.3 fold, GHRH(1-29) = 1 and the “Relative affinity (Binding potency) vs JI-38” value is reported as 13.9 fold, JI-38 = 1.

These molecules were tested against T1, GHRH receptor of human pituitary … (assay: radioligand competition, 125I-JV-1-42 (~0.2 nM) as competitor, human pituitary membrane homogenates).
Text: Normal human pituitaries were purchased from the National Hormone and Peptide Program (A. F. Parlow, Los Angeles, County Harbor-UCLA Medical Center, Torrance, Calif.).
For B2, the IC50 was 1.18 nM and the “Relative affinity (Binding potency) vs JI-38” value was 3.67 fold, JI-38 = 1.
B3 was tested, and the IC50 was 0.86 nM and the “Relative affinity (Binding potency) vs JI-38” value was 5.06 fold, JI-38 = 1.
B4 was tested, and the IC50 was 1.44 nM and the “Relative affinity (Binding potency) vs JI-38” value was 3.02 fold, JI-38 = 1.

What follows are molecules tested against GHRH receptor of human pituitary membrane homogenates (human) (UniProt Q02643) in the same assay as above.
An IC50 of 0.55 nM and a Relative affinity (Binding potency) vs JI-38 (fold, JI-38 = 1) of 7.91 were found for “[Dat^1, D-Ala^2, Gln^8, Orn^12, Abu^15, Orn^21, Nle^27, Asp^28]hGH-RH(1-29)NH-CH3 (from UniProt P01286 32-60) (peptide)” in this work.
An IC50 of 1.7 nM and a Relative affinity (Binding potency) vs JI-38 (fold, JI-38 = 1) of 2.56 were found for “[N-Me-Tyr^1, D-Ala^2, Orn^12, Abu^15, Orn^21, Nle^27, Asp^28, Agm^29]hGH-RH(1-29) (from UniProt P01286 32-60) (peptide)” in this work.
An IC50 of 1.06 nM and a Relative affinity (Binding potency) vs JI-38 (fold, JI-38 = 1) of 4.1 were found for “[N-Me-Tyr^1, D-Ala^2, Orn^12, Abu^15, Orn^21, Nle^27, Asp^28]hGH-RH(1-29)NH-CH3 (from UniProt P01286 32-60) (peptide)” in this work.
An IC50 of 1.56 nM and a Relative affinity (Binding potency) vs JI-38 (fold, JI-38 = 1) of 2.79 were found for “[N-Me-Tyr^1, D-Ala^2, Fpa5^6, Orn^12, Abu^15, Orn^21, Nle^27, Gab^30]hGH-RH(1-30)NH-CH3 (from UniProt P01286 32-61) (peptide)” in this work.
An IC50 of 1.47 nM and a Relative affinity (Binding potency) vs JI-38 (fold, JI-38 = 1) of 2.96 were found for “[N-Me-Tyr^1, D-Ala^2, Orn^12, Abu^15, Orn^21, Nle^27, Asp^28]hGH-RH(1-29)NH-CH2-CH3 (from UniProt P01286 32-60) (peptide)” in this work.
An IC50 of 3.05 nM and a Relative affinity (Binding potency) vs JI-38 (fold, JI-38 = 1) of 1.43 were found for “[N-Me-Tyr^1, D-Ala^2, Fpa5^6, Orn^12, Abu^15, Orn^21, Nle^27, Asp^28, Agm^29]hGH-RH(1-29) (from UniProt P01286 32-60) (peptide)” in this work.
An IC50 of 0.16 nM and a Relative affinity (Binding potency) vs JI-38 (fold, JI-38 = 1) of 27.2 were found for “[N-Me-Tyr^1, D-Ala^2, Gln^8, Orn^12, Abu^15, Orn^21, Nle^27, Asp^28]hGH-RH(1-29)NH-CH3 (from UniProt P01286 32-60) (peptide)” in this work.
An IC50 of 3.44 nM and a Relative affinity (Binding potency) vs JI-38 (fold, JI-38 = 1) of 1.26 were found for “[Ac-N-Me-Tyr^1, D-Ala^2, Gln^8, Orn^12, Abu^15, Orn^21, Nle^27, Asp^28, Agm^29]hGH-RH(1-29) (from UniProt P01286 32-60) (peptide)” in this work.
An IC50 of 1.07 nM and a Relative affinity (Binding potency) vs JI-38 (fold, JI-38 = 1) of 4.07 were found for “[N-Me-Tyr^1, D-Ala^2, Orn^12, Abu^15, Orn^21, Nle^27, Gab^30]hGH-RH(1-30)NH2 (from UniProt P01286 32-61) (peptide)” in this work.
An IC50 of 2.74 nM and a Relative affinity (Binding potency) vs JI-38 (fold, JI-38 = 1) of 1.59 were found for “[Dat^1, D-Ala^2, Gln^8, Orn^12, Abu^15, Orn^21, Nle^27, Asp^28, D-Arg^29]hGH-RH(1-29)NH-CH3 (from UniProt P01286 32-60) (peptide)” in this work.
An IC50 of 0.87 nM and a Relative affinity (Binding potency) vs JI-38 (fold, JI-38 = 1) of 5 were found for “[N-Me-Tyr^1, D-Ala^2, Fpa5^6, Orn^12, Abu^15, Orn^21, Nle^27, Asp^28]hGH-RH(1-29)NH-CH3 (from UniProt P01286 32-60) (peptide)” in this work.
An IC50 of 0.82 nM and a Relative affinity (Binding potency) vs JI-38 (fold, JI-38 = 1) of 5.3 were found for “[N-Me-Tyr^1, D-Ala^2, Gln^8, Orn^12, Abu^15, Orn^21, Nle^27, Asp^28, Agm^29]hGH-RH(1-29) (from UniProt P01286 32-60) (peptide)” in this work.
An IC50 of 0.71 nM and a Relative affinity (Binding potency) vs JI-38 (fold, JI-38 = 1) of 6.12 were found for “[N-Me-Tyr^1, D-Ala^2, Gln^8, Orn^12, Abu^15, Orn^21, Nle^27, Asp^28, Apa^30]hGH-RH(1-30)NH2 (from UniProt P01286 32-61) (peptide)” in this work.

Reference: US20140058068A1 (UNIVERSITY OF MIAMI, published 2014)
